From publication doi:10.1101/2023.12.12.571160

Key:
[1] = target: prefusion-stabilized PRD-0038 S2 subunit trimer (PRD-0038 (clade 3 sarbecovirus)); assay: negative-stain EM
[2] = target: prefusion-stabilized SARS-CoV-1 S2 subunit trimer (SARS-CoV-1); assay: negative-stain EM

Row | Substance | stoichiometry N [1] | stoichiometry N [2]
1 | prefusion-stabilized PRD-0038 S2 subunit trimer (domain or fragment) | 3 | –
2 | prefusion-stabilized SARS-CoV-1 S2 subunit trimer (domain or fragment) | – | 3
